This passage reports Kd results from PMC9344812, “Induction of beige‐like adipocyte markers and functions in 3T3‐L1 cells by Clk1 and PKCβII inhibitory molecules” (Journal of Cellular and Molecular Medicine, 2022).

Holding throughout (conditions): both partners purified
The target of test [1] is T1, Clk4 (recombinant, covalently immobilised on the CM5 chip) (UniProt Q9HAZ1 1-481).
T1 construct: Clk4 kinase, recombinant; source: bought: Abcam#AB204144 (recombinant)
Briefly: SPR; Biacore T200; Clk1, Clk2 (1000 RU) and Clk4 (1000 RU) covalently immobilised on a CM5 chip by NHS/EDC; PGC1α titrated in HBS-N without DMSO, 30 µl/min, 60 s association, 120 s dissociation; steady state, one-site specific binding model. A general note: In SPR one partner is held on a chip, and binding of the other changes the refractive index at the surface.

Test [2] deals with T2, Clk2 (recombinant, covalently immobilised on the CM5 chip) (UniProt P49760 1-499).
T2 construct: Clk2 kinase, recombinant; source: bought: Abcam #AB63190 (recombinant)
Described as above.

Test [3] deals with T3, Clk1 (recombinant, covalently immobilised on the CM5 chip) (UniProt P49759 1-484).
T3 construct: Clk1 kinase, recombinant; The methods print the catalogue number beside PDB 1Z57, which was used for modelling; also called Clk1 GST; source: bought: AbCam #114 706 (recombinant)
The test is described as above.

For test [4], the target named is T4, PGC1α 6X his-tagged construct (UniProt Q9UBK2 1-798).
T4 construct: PGC1α, 6X his-tagged construct held on a Ni-NTA chip
T4 sequence (looked up): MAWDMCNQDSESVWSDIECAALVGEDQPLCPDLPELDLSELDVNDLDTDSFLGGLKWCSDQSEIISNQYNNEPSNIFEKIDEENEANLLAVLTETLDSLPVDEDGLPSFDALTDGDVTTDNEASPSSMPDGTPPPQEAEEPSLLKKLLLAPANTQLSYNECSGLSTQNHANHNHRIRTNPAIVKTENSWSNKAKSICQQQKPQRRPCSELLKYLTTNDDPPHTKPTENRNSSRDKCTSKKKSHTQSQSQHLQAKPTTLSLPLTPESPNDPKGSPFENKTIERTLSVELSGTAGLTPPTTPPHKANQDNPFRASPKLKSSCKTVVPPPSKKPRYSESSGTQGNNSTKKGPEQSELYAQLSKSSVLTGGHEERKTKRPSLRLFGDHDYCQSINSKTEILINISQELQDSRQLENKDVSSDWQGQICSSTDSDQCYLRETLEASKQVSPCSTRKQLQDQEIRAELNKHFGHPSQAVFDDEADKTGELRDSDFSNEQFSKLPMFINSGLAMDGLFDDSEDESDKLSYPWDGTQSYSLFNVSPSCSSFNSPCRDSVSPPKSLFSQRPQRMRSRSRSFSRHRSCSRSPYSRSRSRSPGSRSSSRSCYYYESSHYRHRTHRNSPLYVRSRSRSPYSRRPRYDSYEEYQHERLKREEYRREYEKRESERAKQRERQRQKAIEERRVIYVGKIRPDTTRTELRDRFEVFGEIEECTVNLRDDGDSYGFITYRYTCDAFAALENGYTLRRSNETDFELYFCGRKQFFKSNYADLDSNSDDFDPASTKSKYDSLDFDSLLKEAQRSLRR
Kind of test: SPR; Biacore T200; ~1000 RU PGC1α 6X his held non-covalently on a Ni-NTA chip; Clk1 flowed, 30 µl/min; one-site specific binding model with Hill slope.

T3 sequence (P49759 whole entry): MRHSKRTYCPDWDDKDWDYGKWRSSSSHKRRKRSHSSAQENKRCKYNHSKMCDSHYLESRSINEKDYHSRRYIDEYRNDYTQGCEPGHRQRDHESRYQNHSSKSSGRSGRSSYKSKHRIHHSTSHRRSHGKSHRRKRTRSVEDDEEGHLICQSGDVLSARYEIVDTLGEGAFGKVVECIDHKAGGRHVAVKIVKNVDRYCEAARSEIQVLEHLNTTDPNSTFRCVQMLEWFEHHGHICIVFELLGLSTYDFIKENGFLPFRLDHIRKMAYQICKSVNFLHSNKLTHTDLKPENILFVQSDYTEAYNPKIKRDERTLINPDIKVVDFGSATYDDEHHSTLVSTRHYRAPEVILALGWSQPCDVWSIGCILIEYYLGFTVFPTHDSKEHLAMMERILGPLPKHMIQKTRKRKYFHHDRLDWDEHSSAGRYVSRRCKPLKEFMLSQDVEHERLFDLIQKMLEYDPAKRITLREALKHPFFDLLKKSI
T2 sequence (P49760 whole entry): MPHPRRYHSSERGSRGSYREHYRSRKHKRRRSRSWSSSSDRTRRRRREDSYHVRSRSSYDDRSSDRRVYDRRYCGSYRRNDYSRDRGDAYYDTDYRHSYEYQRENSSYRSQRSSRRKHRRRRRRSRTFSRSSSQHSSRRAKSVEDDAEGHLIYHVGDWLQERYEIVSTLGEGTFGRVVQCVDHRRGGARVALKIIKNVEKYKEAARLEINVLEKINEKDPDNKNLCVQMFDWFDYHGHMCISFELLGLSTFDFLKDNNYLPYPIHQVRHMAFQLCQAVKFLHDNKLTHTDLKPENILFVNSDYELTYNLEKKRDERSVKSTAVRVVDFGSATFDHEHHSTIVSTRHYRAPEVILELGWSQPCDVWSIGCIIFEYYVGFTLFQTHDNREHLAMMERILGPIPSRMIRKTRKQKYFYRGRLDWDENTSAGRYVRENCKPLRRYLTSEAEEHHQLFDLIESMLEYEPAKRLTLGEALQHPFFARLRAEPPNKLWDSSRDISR
T1 sequence (Q9HAZ1 whole entry): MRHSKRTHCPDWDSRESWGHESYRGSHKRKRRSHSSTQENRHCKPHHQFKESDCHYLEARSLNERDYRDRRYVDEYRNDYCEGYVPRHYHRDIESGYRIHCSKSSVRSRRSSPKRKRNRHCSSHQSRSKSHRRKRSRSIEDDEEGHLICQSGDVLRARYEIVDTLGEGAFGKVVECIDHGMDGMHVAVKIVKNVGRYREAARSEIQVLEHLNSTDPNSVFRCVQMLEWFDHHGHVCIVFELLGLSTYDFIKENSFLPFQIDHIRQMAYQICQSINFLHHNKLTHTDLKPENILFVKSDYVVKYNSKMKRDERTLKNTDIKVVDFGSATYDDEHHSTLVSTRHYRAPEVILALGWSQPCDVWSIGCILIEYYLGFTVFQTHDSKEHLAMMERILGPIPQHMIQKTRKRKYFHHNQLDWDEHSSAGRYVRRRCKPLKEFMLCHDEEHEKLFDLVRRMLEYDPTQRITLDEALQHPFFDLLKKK

B1: PGC1α (titrated and flowed over the Clk chips) (natural protein)
chain: TRTELRDRFEVFGEIEECTVNLRDDGDSYGFITYRYTCDAFAALENGYTLRRSNETDFELYFCGRKQFFKSNYADLDSNSDDFDPASTKSKYDSLDFDSLLKEAQRSLRR
modifications: Limits are not printed. They are recalled from the supplier's listing for catalogue H00010891-Q01 (partial human PPARGC1A, NP_037393 aa 689-798, N-terminal GST) and should be verified. GST is left …
One may read the Kd as the equilibrium constant for the complex coming apart. Consider B1, for which the Kd in test [1] was 509 nM; in test [2], 980 nM; in test [3], 240 nM.

B2: Clk1 (flowed over immobilised PGC1α 6X his) (enzyme)
chain: not shown
notes: Clk1 kinase, recombinant; May be the same bought protein as m1 (AbCam #114 706)
For the molecule B2, the Kd in test [4] is approximately 38 nM.
